Reference: article PMC9675756

Key:
[1] = molecular target: A3G-CTD2 (catalytically active), crystal and NMR construct (human) (UniProt Q9HC16); assay: competitive inhibition of deamination, real-time 1H NMR; settings: N at position 6 = 2'-deoxy-zebularine (replaces target C); hydrated to 4-(R)-hydroxy-3,4-dihydro form in the active enzyme; DTT, 0.002% Tween 20, 50 nM protein, RED-tris-NTA dye, 23 C; NMR inhibition: 50 mM NaPO4 pH 6.5, 100 mM NaCl, 0.00
[2] = molecular target: A3G-CTD2* (catalytically inactive), MST construct E259A (human) (UniProt Q9HC16); assay: MST; settings: N at position 6 = 2'-deoxy-zebularine (replaces target C); hydrated to 4-(R)-hydroxy-3,4-dihydro form in the active enzyme; MST: 20 mM Bis-Tris pH 6.5, 100 mM NaCl, 1 mM DTT, 0.002% Tween 20, 50 nM protein, RED-tris-NTA dye, 23 C; NMR inhibition: 50 mM NaPO4 pH 6.5, 100 mM NaCl …
[3] = molecular target: A3G-CTD2 (catalytically active soluble variant), MST construct (human) (UniProt Q9HC16); assay: MST; settings: 23 C, apparent Kd, active enzyme hydrates dZ, N at position 6 = 2'-deoxy-zebularine (replaces target C), hydrated to 4-(R)-hydroxy-3,4-dihydro form in the active enzyme, MST: 20 mM Bis-Tris pH 6.5, 100 mM NaCl, 1 mM DTT, 0.002% Tween 20, 50 nM protein, RED-tris-NTA dye, NMR inhibition: 50 mM NaPO4 pH 6.5, 100 mM NaCl …

A3G-CTD2 (catalytically active), crystal and NMR construct (human), sequence (Q9HC16 191-384): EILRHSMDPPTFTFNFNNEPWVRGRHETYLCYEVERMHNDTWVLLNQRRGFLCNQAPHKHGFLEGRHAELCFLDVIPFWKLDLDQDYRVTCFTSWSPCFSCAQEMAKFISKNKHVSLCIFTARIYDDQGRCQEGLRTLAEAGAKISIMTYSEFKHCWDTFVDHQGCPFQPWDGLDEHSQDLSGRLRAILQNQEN
A3G-CTD2* (catalytically inactive), MST construct E259A (human), sequence (Q9HC16 191-384 E259A): as the sequence (Q9HC16 191-384) above, with E69A counted along it

## AATCCNAAA [5'-AATCCdZAAA (dZ-ssDNA inhibitor)]
[1]
  Ki: 3.07 µM
[2]
  Kd: 14.3 µM
[3]
  Kd: 0.27 µM
